What was measured:
[1] = target: CSF1 (colony stimulating factor 1 ligand) (UniProt P09603); test: cell-based or functional assay
[2] = target: IL34 (interleukin 34 ligand) (UniProt Q6ZMJ4); test: cell-based or functional assay
Sequence of UniProt Q6ZMJ4 (Q6ZMJ4 21-242 limits assumed): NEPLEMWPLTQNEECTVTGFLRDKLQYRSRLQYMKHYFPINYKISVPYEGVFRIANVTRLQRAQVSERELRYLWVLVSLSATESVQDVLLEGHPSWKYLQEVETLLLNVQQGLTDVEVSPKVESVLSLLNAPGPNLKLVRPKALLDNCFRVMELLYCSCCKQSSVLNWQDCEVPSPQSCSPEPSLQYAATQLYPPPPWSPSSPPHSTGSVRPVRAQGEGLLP

Sequence of UniProt P09603 (P09603 33-190 limits assumed): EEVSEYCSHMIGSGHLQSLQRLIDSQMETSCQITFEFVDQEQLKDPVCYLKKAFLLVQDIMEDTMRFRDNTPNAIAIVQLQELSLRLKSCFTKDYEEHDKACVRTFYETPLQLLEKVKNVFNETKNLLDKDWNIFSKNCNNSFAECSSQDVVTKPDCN

IC50 for inhibition of CSF1-induced monocyte proliferation [1]: 1.5 nM
IC50 for inhibition of IL34-induced monocyte proliferation [2]: 0.27 nM
Substance: hCSF1R-ECD.506-Fc (Fc fusion)

Reference: patent US20100136006A1
